Experimental data reported in the Human Domainome abundance scans (Beltran et al. 2025).
± gives the uncertainty stated by the source.

B1: E3 ubiquitin-protein ligase NEDD4-like, residues 539 to 589; numbered along this chain, Q96PU5 (parent)
chain: KTSLNPNDLGPLPPGWEERIHLDGRTFYIDHNSKITQWEDPRLQNPAITGP

Variants of: B1
Assay: abundance fitness (aPCA) (normalised: wild type 0, dead -1); higher = more abundant; growth selection in yeast, the domain comes from the species named
Details: Homo sapiens

| Variant | abundance fitness |
| --- | --- |
| W16M | -0.46 ± 0.082 |
| W16I | -0.684 ± 0.1 |
| W16G | -0.223 ± 0.053 |
| W16R | -0.408 ± 0.042 |
| W16T | -0.565 ± 0.075 |
| W16S | -0.471 ± 0.065 |
| W16Q | -0.388 ± 0.088 |
| W16E | -0.393 ± 0.081 |
| W16K | -0.29 ± 0.1 |
| W16C | -0.502 ± 0.086 |
| G24C | -0.917 ± 0.095 |
| G24A | -0.608 ± 0.064 |
| L12C | -0.824 ± 0.12 |
| L12M | -0.121 ± 0.05 |
| L12V | -0.568 ± 0.048 |
| L12I | -0.488 ± 0.097 |
| L12S | -0.695 ± 0.063 |
| L12H | -0.863 ± 0.17 |
| L12E | -0.563 ± 0.089 |
| L12W | -0.72 ± 0.053 |
| L12F | -0.088 ± 0.071 |
| L12R | -0.864 ± 0.057 |
| L12Q | -0.773 ± 0.1 |
| L12Y | -0.788 ± 0.14 |

| Variant | abundance fitness |
| --- | --- |
| L12A | -0.627 ± 0.044 |
| L12N | -0.534 ± 0.11 |
| L12G | -1.2 ± 0.044 |
| L12P | -0.62 ± 0.12 |
| L12D | -0.736 ± 0.14 |
| L12T | -0.427 ± 0.072 |
| N7T | -0.007 ± 0.042 |
| N7Q | -0.137 ± 0.08 |
| N7P | -0.05 ± 0.084 |
| N7Y | -0.395 ± 0.099 |
| N7I | -0.169 ± 0.088 |
| N7L | -0.212 ± 0.048 |
| N7D | 0.044 ± 0.08 |
| N7W | -0.4 ± 0.056 |
| N7H | -0.146 ± 0.059 |
| N7M | -0.02 ± 0.066 |
| N7S | -0.042 ± 0.048 |
| N7K | -0.063 ± 0.098 |
| N7E | 0.001 ± 0.085 |
| N7V | -0.114 ± 0.059 |
| N7G | 0.005 ± 0.047 |
| N7R | -0.041 ± 0.042 |
| N7A | -0.01 ± 0.058 |
| N7F | -0.11 ± 0.09 |

| Variant | abundance fitness |
| --- | --- |
| P6R | 0.015 ± 0.054 |
| P6N | 0.374 ± 0.1 |
| P6T | 0.144 ± 0.078 |
| P6S | 0.156 ± 0.057 |
| P6D | 0.159 ± 0.051 |
| P6E | 0.057 ± 0.048 |
| P6K | 0.146 ± 0.091 |
| P6G | 0.027 ± 0.053 |
| P6M | 0.112 ± 0.088 |
| P6W | -0.176 ± 0.074 |
| P6Y | -0.105 ± 0.12 |
| P6Q | -0.199 ± 0.1 |
| P6H | -0.237 ± 0.12 |
| P6I | 0.077 ± 0.099 |
| P6F | -0.123 ± 0.11 |
| D8N | 0.013 ± 0.069 |
| D8Q | -0.189 ± 0.053 |
| D8P | -0.218 ± 0.057 |
| D8F | -0.321 ± 0.092 |
| D8I | -0.189 ± 0.051 |
| D8M | -0.307 ± 0.088 |
| D8A | -0.138 ± 0.057 |
| D8H | -0.194 ± 0.069 |
| D8L | -0.304 ± 0.044 |

| Variant | abundance fitness |
| --- | --- |
| D8S | -0.147 ± 0.047 |
| D8W | -0.466 ± 0.053 |
| D8K | -0.022 ± 0.063 |
| D8R | -0.034 ± 0.053 |
| D8C | 0.033 ± 0.083 |
| N5D | -0.407 ± 0.054 |
| N5S | -0.123 ± 0.049 |
| N5H | 0.008 ± 0.096 |
| N5M | 0.01 ± 0.087 |
| N5G | -0.175 ± 0.063 |
| N5F | -0.135 ± 0.054 |
| N5T | -0.203 ± 0.057 |
| N5E | 0.019 ± 0.051 |
| N5V | -0.075 ± 0.061 |
| N5C | -0.04 ± 0.08 |
| N5Y | -0.259 ± 0.11 |
| N5L | -0.212 ± 0.055 |
| N5I | -0.256 ± 0.12 |
| N5A | -0.167 ± 0.052 |
| N5W | -0.538 ± 0.067 |
| N5R | -0.293 ± 0.042 |
| N5P | -0.487 ± 0.062 |
| N5K | -0.247 ± 0.072 |
| N5Q | -0.267 ± 0.085 |

| Variant | abundance fitness |
| --- | --- |
| R19M | -0.233 ± 0.081 |
| R19V | -0.155 ± 0.053 |
| R19T | -0.342 ± 0.063 |
| R19C | -0.138 ± 0.047 |
| R19F | -0.28 ± 0.088 |
| R19I | -0.181 ± 0.072 |
| R19D | -0.421 ± 0.078 |
| R19N | -0.368 ± 0.13 |
| R19K | -0.198 ± 0.098 |
| R19Q | -0.361 ± 0.12 |
| R19E | -0.192 ± 0.069 |
| R19S | -0.132 ± 0.066 |
| R19Y | -0.216 ± 0.08 |
| R19H | -0.423 ± 0.093 |
| R19L | -0.354 ± 0.055 |
| R19A | -0.283 ± 0.062 |
| R19G | -0.175 ± 0.047 |
| R19P | -0.969 ± 0.15 |
| E18I | -0.796 ± 0.16 |
| E18H | -0.68 ± 0.17 |
| E18P | -0.48 ± 0.048 |
| E18K | -0.274 ± 0.089 |
| E18L | -0.802 ± 0.087 |
| E18C | -0.252 ± 0.053 |

| Variant | abundance fitness |
| --- | --- |
| E18F | -0.736 ± 0.14 |
| E18Y | -0.417 ± 0.12 |
| E18Q | 0 ± 0.093 |
| E18W | -0.962 ± 0.1 |
| E18R | -0.159 ± 0.061 |
| E18A | -0.071 ± 0.042 |
| E18M | -0.444 ± 0.094 |
| E18T | -0.27 ± 0.049 |
| E18V | -0.322 ± 0.053 |
| E18G | -0.503 ± 0.06 |
| L9S | -0.237 ± 0.36 |
| L9F | -0.271 ± 0.31 |
| L9V | -0.347 ± 0.32 |
| G15E | -0.425 ± 0.079 |
| G15L | -0.622 ± 0.062 |
| G15T | -0.526 ± 0.065 |
| G15M | -0.406 ± 0.051 |
| G15I | -0.429 ± 0.13 |
| G15R | -0.498 ± 0.064 |
| G15Y | -0.53 ± 0.13 |
| G15A | -0.361 ± 0.048 |
| G15P | -0.471 ± 0.05 |
| G15N | -0.018 ± 0.084 |
| G15Q | -0.321 ± 0.057 |

| Variant | abundance fitness |
| --- | --- |
| G15K | -0.447 ± 0.077 |
| G15F | -0.491 ± 0.098 |
| G15S | -0.394 ± 0.042 |
| G15D | -0.471 ± 0.086 |
| G15H | -0.407 ± 0.18 |
| G15C | -0.442 ± 0.056 |
| L22T | 0.141 ± 0.084 |
| L22K | 0.206 ± 0.044 |
| L22C | -0.219 ± 0.088 |
| L22F | -0.23 ± 0.11 |
| L22M | 0.013 ± 0.047 |
| L22P | 0.246 ± 0.052 |
| L22R | 0.052 ± 0.043 |
| L22V | 0.089 ± 0.043 |
| L22N | -0.247 ± 0.12 |
| L22W | -0.167 ± 0.069 |
| L22G | 0.085 ± 0.043 |
| L22I | -0.107 ± 0.087 |
| L22S | 0.154 ± 0.054 |
| L22Q | 0.152 ± 0.064 |
| L22A | 0.156 ± 0.049 |
| L22D | 0.048 ± 0.071 |
| L22Y | 0.07 ± 0.1 |
